Results published in patent publication EP4682166A1 (Guangzhou Enmai Biotechnology Co., Ltd, dated 2026).

Key:
[1] = target: T1, human NMI (N-myc Interacting protein), recombinant protein (human, UniProt Q13287 1-307, limits assumed); experiment: sandwich ELISA; detection 94C4-1-biotin 1µg/mL; hNMI 195.313 pg/mL
T1 construct: Gene ID: 9111; also called hNMI; antigen
T1 sequence (looked up): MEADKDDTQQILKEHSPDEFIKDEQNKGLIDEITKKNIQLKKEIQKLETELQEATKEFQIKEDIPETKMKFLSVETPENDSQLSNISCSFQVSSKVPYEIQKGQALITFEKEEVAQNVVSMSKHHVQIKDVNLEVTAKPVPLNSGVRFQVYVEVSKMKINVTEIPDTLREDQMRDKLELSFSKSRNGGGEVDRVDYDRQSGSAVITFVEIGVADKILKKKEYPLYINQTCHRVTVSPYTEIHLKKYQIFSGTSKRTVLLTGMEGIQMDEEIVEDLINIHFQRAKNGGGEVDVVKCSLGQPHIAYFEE

[2] = target: T1, human NMI (N-myc Interacting protein), …; experiment: sandwich ELISA; detection 94C4-1-biotin 1µg/mL; hNMI 48.828 pg/mL
[3] = target: T1, human NMI (N-myc Interacting protein), …; experiment: ELISA, binding to hNMI
[4] = target: T1, human NMI (N-myc Interacting protein), …; experiment: indirect ELISA, coated hNMI
[5] = target: T1, human NMI (N-myc Interacting protein), …; experiment: sandwich ELISA; detection 94C4-1-biotin 0.5µg/mL; hNMI 50,000.000 pg/mL
[6] = target: T1, human NMI (N-myc Interacting protein), …; experiment: sandwich ELISA; detection 94C4-1-biotin 0.5µg/mL; hNMI 48.828 pg/mL
[7] = target: T1, human NMI (N-myc Interacting protein), …; experiment: sandwich ELISA; detection 94C4-1-biotin 0.5µg/mL; hNMI 195.313 pg/mL
[8] = target: T1, human NMI (N-myc Interacting protein), …; experiment: sandwich ELISA; detection 94C4-1-biotin 1µg/mL; hNMI 12,500.000 pg/mL
[9] = target: T1, human NMI (N-myc Interacting protein), …; experiment: ELISA, binding to hNMI; remark: listed apart in the source
[10] = target: T1, human NMI (N-myc Interacting protein), …; experiment: sandwich ELISA; detection 94C4-1-biotin 1µg/mL; hNMI 3,125.000 pg/mL
[11] = target: T1, human NMI (N-myc Interacting protein), …; experiment: sandwich ELISA; detection 94C4-1-biotin 1µg/mL; hNMI 1,562.500 pg/mL
[12] = target: T1, human NMI (N-myc Interacting protein), …; experiment: sandwich ELISA; detection 94C4-1-biotin 1µg/mL; hNMI 781.250 pg/mL
[13] = target: T1, human NMI (N-myc Interacting protein), …; experiment: sandwich ELISA; detection 94C4-1-biotin 1µg/mL; hNMI 390.625 pg/mL
[14] = target: T1, human NMI (N-myc Interacting protein), …; experiment: sandwich ELISA; detection 94C4-1-biotin 1µg/mL; hNMI 97.656 pg/mL
[15] = target: T1, human NMI (N-myc Interacting protein), …; experiment: sandwich ELISA; detection 94C4-1-biotin 0.5µg/mL; hNMI 390.625 pg/mL
[16] = target: T1, human NMI (N-myc Interacting protein), …; experiment: sandwich ELISA; detection 94C4-1-biotin 0.5µg/mL; hNMI 12,500.000 pg/mL
[17] = target: T1, human NMI (N-myc Interacting protein), …; experiment: sandwich ELISA; detection 94C4-1-biotin 1µg/mL; hNMI 50,000.000 pg/mL
[18] = target: T1, human NMI (N-myc Interacting protein), …; experiment: sandwich ELISA; detection 94C4-1-biotin 0.5µg/mL; hNMI 6,250.000 pg/mL
[19] = target: T1, human NMI (N-myc Interacting protein), …; experiment: sandwich ELISA; detection 94C4-1-biotin 0.5µg/mL; hNMI 3,125.000 pg/mL
[20] = target: T1, human NMI (N-myc Interacting protein), …; experiment: sandwich ELISA; detection 94C4-1-biotin 1µg/mL; hNMI 25,000.000 pg/mL
[21] = target: T1, human NMI (N-myc Interacting protein), …; experiment: sandwich ELISA; detection 94C4-1-biotin 0.5µg/mL; hNMI 1,562.500 pg/mL
[22] = target: T1, human NMI (N-myc Interacting protein), …; experiment: sandwich ELISA; detection 94C4-1-biotin 1µg/mL; hNMI 6,250.000 pg/mL
[23] = target: T1, human NMI (N-myc Interacting protein), …; experiment: sandwich ELISA; detection 94C4-1-biotin 0.5µg/mL; hNMI 97.656 pg/mL
[24] = target: T1, human NMI (N-myc Interacting protein), …; experiment: sandwich ELISA; detection 94C4-1-biotin 0.5µg/mL; hNMI 781.250 pg/mL
[25] = target: T1, human NMI (N-myc Interacting protein), …; experiment: sandwich ELISA; detection 94C4-1-biotin 0.5µg/mL; hNMI 25,000.000 pg/mL

Binder | OD450 [1] [OD450] | OD450 [2] [OD450] | EC50 [4] [mg/L] | OD450 [5] [OD450] | OD450 [6] [OD450] | OD450 [7] [OD450] | OD450 [8] [OD450] | OD450 [10] [OD450] | OD450 [11] [OD450] | OD450 [12] [OD450] | OD450 [13] [OD450] | OD450 [14] [OD450] | OD450 [15] [OD450] | OD450 [16] [OD450] | OD450 [17] [OD450] | OD450 [18] [OD450] | OD450 [19] [OD450] | OD450 [20] [OD450] | OD450 [21] [OD450] | OD450 [22] [OD450] | other results
monoclonal antibody 98G10 (antibody, V domains shown, Rabbit monoclonal antibody) VH: QEQLEESGGDLVKPEGSLTLTCTASGFSFSASYWICWVRQAPGKGLEWIACIYGGSSGSAYYASWAKGRFTISKTSSTTVTLQMTSLTAADTATYFCARAGYYNYGSAGDIYPSSFKLWGPGTLVTVSS VL: DIVMTQTPASVEAAVGGTVTINCQASQSISTALAWYQQKPGQPPKLLIYTASKVASGVPSRFSGSGSGTQFTLTISDLECADAATYYCQNYYYSSSSITFGGGTEVVVK | 0.179 | 0.134 | 0.071 | 3.25 | 0.108 | 0.159 | 2.31 | 0.903 | 0.525 | 0.341 | 0.233 | 0.149 | 0.219 | 2.44 | 3.04 | 1.6 | 0.958 | 2.74 | 0.596 | 1.53 | EC50 [3]: 0.031 mg/L; EC50 [9]: 0.165 nM; OD450 [23]: 0.126 OD450; OD450 [24]: 0.377 OD450; OD450 [25]: 2.87 OD450
monoclonal antibody 39B4 (antibody, V domains shown, Rabbit monoclonal antibody; also called 39B4-1) VH: QEQLVESGGGLVQPEGSLTLTCTASGFSFSSSYWICWVRQAPGKGLEWIACIYAGTSGSTYYASWAKGRFTISKTSSTTVDLQMNSLTAADTATYFCARAGYYTYGAGVYIYPSSFKLWGPGTLVTVSS VL: DVVMTQTPASVEAAVGGTVTIKCQASESIGNALAWYQQKPGQPPKLLIYSASNLASGVPSRFSGSGSGTQFTLTISDLECADAATYYCQSYYYSSSSITFGGGTEVVVK | 0.207 | 0.145 | 0.0535 | 3.16 | 0.13 | 0.179 | 2.15 | 0.932 | 0.547 | 0.381 | 0.251 | 0.169 | 0.25 | 2.3 | 3.1 | 1.56 | 0.96 | 2.75 | 0.593 | 1.52 | OD450 [23]: 0.143 OD450; OD450 [24]: 0.387 OD450; OD450 [25]: 2.75 OD450
